# Test results reported in patent publication US7223734B2, “Plasma protein-binding ligands” (The American National Red Cross, priority 2002, dated 2007).
# Where “and” joins values, the source holds several entries; their conditions need not be identical. Equal entries are not always repeated. Non-standard residues stand in square brackets, D forms with d. No end group written: not given here.
# What was measured:
# fibrinogen [1] = target: T1, fibrinogen (Homo sapiens, UniProt P02671+P02675+P02679); experiment: Purification of fibrinogen from plasma on HWQ resin column (Example 3); assay type: binding
# T1 construct: from tissue; host or cells: human plasma
# T1 sequence (P02671 20-629 limits assumed): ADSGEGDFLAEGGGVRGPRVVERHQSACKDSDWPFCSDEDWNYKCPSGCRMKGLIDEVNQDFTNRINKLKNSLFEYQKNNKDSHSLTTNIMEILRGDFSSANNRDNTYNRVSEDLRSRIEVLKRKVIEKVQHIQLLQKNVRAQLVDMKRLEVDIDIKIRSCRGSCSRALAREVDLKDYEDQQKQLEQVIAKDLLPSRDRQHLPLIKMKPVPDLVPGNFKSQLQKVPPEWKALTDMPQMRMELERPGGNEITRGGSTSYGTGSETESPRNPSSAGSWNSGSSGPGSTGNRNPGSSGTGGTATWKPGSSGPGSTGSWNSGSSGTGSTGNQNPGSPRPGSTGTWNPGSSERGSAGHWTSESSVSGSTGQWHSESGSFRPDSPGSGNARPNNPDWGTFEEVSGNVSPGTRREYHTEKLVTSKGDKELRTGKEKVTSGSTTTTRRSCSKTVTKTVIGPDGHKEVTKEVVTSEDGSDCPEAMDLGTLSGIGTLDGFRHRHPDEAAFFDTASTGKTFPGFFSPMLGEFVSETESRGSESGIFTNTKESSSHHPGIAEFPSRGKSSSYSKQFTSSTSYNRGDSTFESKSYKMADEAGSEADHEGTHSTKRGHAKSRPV
# T1 sequence (P02675 31-491): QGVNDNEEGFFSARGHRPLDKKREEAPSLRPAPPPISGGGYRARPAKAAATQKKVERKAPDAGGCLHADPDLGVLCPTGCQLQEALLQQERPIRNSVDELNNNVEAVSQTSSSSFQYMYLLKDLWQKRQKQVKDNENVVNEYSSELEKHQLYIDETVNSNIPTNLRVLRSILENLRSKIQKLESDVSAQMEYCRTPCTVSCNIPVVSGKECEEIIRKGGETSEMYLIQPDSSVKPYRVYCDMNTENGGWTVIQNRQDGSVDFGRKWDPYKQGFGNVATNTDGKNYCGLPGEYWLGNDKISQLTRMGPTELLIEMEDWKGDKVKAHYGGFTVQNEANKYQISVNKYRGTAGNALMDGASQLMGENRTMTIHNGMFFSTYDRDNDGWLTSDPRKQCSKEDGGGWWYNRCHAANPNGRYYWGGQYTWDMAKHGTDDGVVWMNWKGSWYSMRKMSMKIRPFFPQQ
# T1 sequence (P02679 27-433 limits assumed): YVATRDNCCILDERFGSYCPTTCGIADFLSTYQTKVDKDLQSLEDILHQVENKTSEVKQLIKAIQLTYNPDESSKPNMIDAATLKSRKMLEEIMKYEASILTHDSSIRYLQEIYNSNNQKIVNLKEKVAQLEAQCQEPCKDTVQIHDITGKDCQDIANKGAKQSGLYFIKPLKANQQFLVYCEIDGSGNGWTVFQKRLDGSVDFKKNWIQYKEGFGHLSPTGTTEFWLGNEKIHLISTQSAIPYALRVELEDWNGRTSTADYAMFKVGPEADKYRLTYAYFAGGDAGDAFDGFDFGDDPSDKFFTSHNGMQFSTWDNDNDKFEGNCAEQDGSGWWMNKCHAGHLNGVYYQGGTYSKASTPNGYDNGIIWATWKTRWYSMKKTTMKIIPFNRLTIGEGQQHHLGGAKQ
# Method: Five milliliters of plasma was applied at a flow rate of 0.2 ml/min. onto a 0.8 ml column (RT=4.0 min) containing a resin displaying the HWQ ligand, and was equilibrated with 0.14 M NaCl, 0.020M sodium citrate, pH 7.0 (EQ buffer). After washing the resin with EQ buffer and 0.5 M NaCl, pH 7.0, to baseline, the bound fibrinogen was eluted with 2.0 M NaCl, pH 7.0 or 0.3 M glycine, 0.5M NaCl, pH 9.0. All of the wash and elution buffers contained 0.020 M sodium citrate. […] However, dynamic resin capacities of 5–8 mg were reached. The resin was regenerated with 2 M guanidine-HCl, 2% Sarkosyl, 30% ethanol and 70% ethanol/2% acetic acid, followed by storage in 20% methanol.
# Apo-A1 lipoprotein [2] = experiment: Preparation of fibrinogen- and Apo-A1-depleted plasma: Apo-A1 in flow-through (Example 5); assay type: binding, human
# Method: (§1) Toyopearl AF Amino 650M resin displaying a peptide consisting essentially of the amino acid sequence D-ARQFDF (SEQ ID NO: 20) was suspended for 2 hours in 20% methanol. After washing with distilled water, the resin was packed into an Omni column (column volume (CV)=10 ml; diameter 1.5 cm; CF 1.77 cm^2) and equilibrated in 0.14 M NaCl, 0.020 M sodium citrate, pH 7.0 (EQ buffer). Fifty milliliters of filtered plasma (0.80 mm, Nalgene CN, Cat. No. 380-0080; 0.45 μm, Corning CA, Cat. No. 431155; 0.20 μm, Nalgene PES, Cat. No. 165-0020) were loaded on the Omni columns at a linear velocity (LV) of 50 cm/H (flow rate (FR)=1.5 ml/min; residence time (RT)=6.7 minutes). The flow-through was collected in column volumes. After pooling fibrinogen-depleted plasma (50 ml), the flow-through was loaded onto a column comprising a resin displaying an Apo-A1 lipoprotein-binding ligand (D-WWLHIN (SEQ ID NO: 33)), as described below. The fibrinogen-binding column was washed with 12 CVs of EQ buffer and the fibrinogen eluted with 10 CVs of 0.3 M glycine, 0.5 M NaCl, pH 9.0. The column was regenerated with 10 CVs of 2% Sarkosyl, pH 8.0, followed by 10 CVs of 2.0 M guanidine (GuHCl). After washing with 5 CVs of distilled water, the column was further cleaned with 6 CVs of 30% ethanol and 6 CVs of 70% ethanol containing 2% acetic acid. […]
# Apo-A1 lipoprotein [3] = target: T2, Apo-A1 lipoprotein (Homo sapiens, UniProt P02647); experiment: Apo-A1 lipoprotein purification from fibrinogen-depleted plasma on peptide resin column (Example 4); assay type: binding
# T2 construct: from tissue; host or cells: human plasma (whole or fibrinogen-depleted)
# Method: Apo-A1 lipoprotein purification was accomplished with D-WWLHIN (SEQ ID NO: 33) peptides and several analogs. Indeed, about 100% Apo-A1 lipoprotein depletion from plasma was repeatedly obtained with D-WWLHAN (SEQ ID NO: 56) and D-WWLHIN (SEQ ID NO: […]). Fourteen milliliters of fibrinogen-depleted plasma was loaded onto a 2.3 ml column (CF=0.785 cm^2) at 0.4 ml/min. (LV=30 cm/H; RT=5.8) that had been equilibrated with 0.14 M NaCl, 0.020 M sodium citrate, pH 7.0 (EQ buffer). After the column was washed with EQ buffer to baseline, Apo-A1 lipoprotein was eluted with 2.0 M NaCl, 1% Tween-20, 0.020M sodium citrate, pH 7.0. The column was regenerated with 2.0 M guanidine-HCl, 2% Sarkosyl, and 2% acetic acid and stored in 20% methanol.
# paraoxonase [4] = conditions: after 1 hour incubation with resin at 37° C.; rabbit serum diluted 1/10
# Method: Paraoxonase binding to a WWLHAN (SEQ ID NO: 56)-displaying resin was evaluated according to the following protocol. Rabbit serum diluted 1/10 times with PBS ([…]) was incubated in a rotating Eppendorf tube with 50 μl of D-WWLHAN (SEQ ID NO: 56)-displaying resin suspension containing approximately […] of resin. The resin was previously soaked in 20% methanol overnight and washed 3 times with PBS to remove the methanol traces and resuspended in paraoxonase assay buffer (20 mM Tris pH 8.0, 150 mM NaCl, and 2 mM CaCl2). After 1 hour incubation at 37° C., resin beads were precipitated by centrifugation at 8000 g for 1 min in an Eppendorf microcentrifuge. Supernatants were transferred into separate Eppendorf tubes and resin bead pellets were resuspended in equal volumes of paraoxonase assay buffer. Paraoxonase activity of resin bead suspensions and supernatant solutions was measured. In particular, 100 μl of paraoxonase assay buffer containing 100 μm of DEPFMU (a fluorogenic substrate for paraoxonase detection) was mixed with […] of supernatant or 10 μl of resin bead suspension, or the original serum solution in a standard microtiter plate well. After thorough mixing, the plate solution was incubated for 20 minutes at 37° C. Hydrolysis of DEPFMU was quantified by measuring the fluorescence level at […] using a commercial fluorometer. The level of fluorescence correlates with the level of 6,8-difluoro-4-methylumbelliferyl released from DEPFMU as a result of paraoxonase-mediated hydrolysis. The actual amount of 6,8-difluoro-4-methylumbelliferyl released in the assay can be calibrated with a known amount of 6,8-difluoro-4-methylumbelliferyl.
# Several different D-WWLHIN (SEQ ID NO: 33) analogs were screened for the ability to bind to paraoxonase under the conditions described in Example 7. For this experiment, the following resins were tested: WWLHAN (SEQ ID NO: 56), AWLHIN (SEQ ID NO: 59), WALHIN (SEQ ID NO: 60), WWAHIN (SEQ ID NO: 61), WWLHIA (SEQ ID NO: 63), WYLHIN (SEQ ID NO: 35), WWLFIN (SEQ ID NO: 36), and na1′WLHIN (SEQ ID NO: 40).
# API = target: T3, API (Homo sapiens, UniProt P01009); experiment: Preparation of fibrinogen- and Apo-A1-depleted plasma: API in flow-through (Example 5); assay type: binding; conditions: after chromatography on the named resin
# T3 construct: from tissue; host or cells: human plasma (whole, fibrinogen-depleted or F1-Apo-depleted)
# Method: as §1
# paraoxonase [5] = conditions: without use of detergent
# Text: Paraoxonase, or any plasma protein, can be recovered from the isolated or purified peptide of the invention coupled to a bead (i.e., a support) by several different approaches, including washing beads with buffers with high and low ionic strength, high and low pH, or buffers comprising up to 50% of ethylene glycol and different detergents.
# fibrinogen [6] = target: T1, fibrinogen; experiment: Purification of fibrinogen from plasma by affinity chromatography on D-ARQFDF resin (Example 2); assay type: binding
# Method: ToyoPearl AF-Amino 650 M resin beads displaying dried D-ARQFDF (SEQ ID NO: 20) peptide via an epsilon amino caproic acid (EACA) spacer were suspended in 20% methanol for a minimum of 2 hours before equilibration in 0.12–0.15 M NaCl, 0.020 M sodium citrate, pH 6.5–7.5. For 2.0–2.1 ml columns, about […] of resin was obtained. The resin was subsequently packed in an Omni Column of 1.0–1.5 cm diameter and evaluated either on an ÄKTAExplorer System or BIO RAD BioLogic LP. Optical density at 280 nm–320 nm and conductivity was constantly monitored during the evaluations. Flow rates were selected according to column size to achieve linear velocities of 30–60 cm/hour and residence times between 5–8 minutes.
# All evaluations were performed at room temperature with cryo-rich plasma that had been 0.8 μm and 0.45 μm filtered. A linear velocity (LV) of […] was maintained throughout the experiments. Fifty milliliters of plasma was applied at 1.5 ml/min (RT=6.7) onto 10 ml column (height 5.7 cm, CF=1.77 cm^2) that had been equilibrated with 0.14 M NaCl, 0.020 M sodium citrate, pH 7.0 (EQ buffer). After the column was washed with EQ buffer to baseline, the fibrinogen was eluted with 0.3 M glycine, 0.5 M NaCl at pH 9.0 (10 CV). The column was regenerated with 2% Sarkosyl, 2.0 M guanidine-HCl, 30% ethanol, followed by a 70% ethanol/2% acetic acid mixture and stored in 20% methanol.
# fibrinogen [7] = target: T1, fibrinogen; experiment: Preparation of fibrinogen- and Apo-A1-depleted plasma: fibrinogen capture (Example 5); assay type: binding; conditions: nephelometric and clotting analysis
# Method: as §1
# T3 sequence (P01009 25-418): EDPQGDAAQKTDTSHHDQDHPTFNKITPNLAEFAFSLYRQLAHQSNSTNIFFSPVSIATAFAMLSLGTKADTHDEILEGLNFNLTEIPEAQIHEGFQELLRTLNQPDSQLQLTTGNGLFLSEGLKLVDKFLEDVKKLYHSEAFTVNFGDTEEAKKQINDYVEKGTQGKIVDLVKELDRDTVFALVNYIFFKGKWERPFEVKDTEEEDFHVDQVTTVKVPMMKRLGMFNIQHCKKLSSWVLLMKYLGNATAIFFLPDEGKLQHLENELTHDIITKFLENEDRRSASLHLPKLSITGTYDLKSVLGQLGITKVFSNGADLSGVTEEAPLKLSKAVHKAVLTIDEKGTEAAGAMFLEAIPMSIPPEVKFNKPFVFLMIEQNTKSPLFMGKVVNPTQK
# T2 sequence (P02647 25-267 limits assumed): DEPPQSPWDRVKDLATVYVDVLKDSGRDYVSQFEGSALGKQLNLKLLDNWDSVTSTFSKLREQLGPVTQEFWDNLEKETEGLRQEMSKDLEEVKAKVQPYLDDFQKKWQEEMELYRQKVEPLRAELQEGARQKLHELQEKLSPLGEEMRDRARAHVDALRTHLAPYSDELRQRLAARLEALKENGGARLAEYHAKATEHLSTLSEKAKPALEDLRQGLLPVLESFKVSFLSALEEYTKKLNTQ
Substance,"elution of bound fibrinogen (fibrinogen [1]; 2.0 M NaCl, pH 7.0 or 0.3 M glycine, 0.5M NaCl, pH 9.0)",dynamic resin capacities (fibrinogen [1]; 5 ml plasma on 0.8 ml column),Apo-A1 lipoprotein detection after treating with the resin (Apo-A1 lipoprotein [2]; nephelometry and SDS-PAGE analysis),Apo-A1 lipoprotein depletion from plasma (Apo-A1 lipoprotein [3]),original paraoxonase activity remaining in the serum (paraoxonase [4]),API recovered in the flow-through (API),paraoxonase activity eluted from the beads into the supernatant (paraoxonase [5]),"Total Fibrinogen (fibrinogen [6]; Elution, plasma load 51 mg)","Fibrinogen (fibrinogen [6]; Flow thru + Post wash, fibrinogen antigen (nephelometric analysis), plasma load 25 ml, 2.04 mg/ml)","runs with minimal changes in performance, dynamic resin capacity, or purity of fibrinogen eluates (fibrinogen [6]; resin reuse)","dynamic resin capacity (fibrinogen [6]; resin-to-plasma ratios of 1:3.5 to 1:4.5, peptide ligand densities 0.67–0.94 mmol/g resin)",Apo-A1 lipoprotein detected in the flow-through (Apo-A1 lipoprotein [2]; after treatment with the named resin),fibrinogen captured (fibrinogen [7])
HWQ,Complete elution of fibrinogen was not achieved,5 to 8 mg,,,,,,,,,,,
"WWLHAN ([dW]WLHAN; not fully specified (residues 2, 3, 4, 5, 6)) [D-WWLHAN]",,,no Apo-A1 lipoprotein could be detected,about 100%,less than 4%,90–95%,No paraoxonase activity was eluted,,,,,,
"D-ARQFDF ([dA]RQFDF; not fully specified (residues 2, 3, 4, 5, 6, C-terminus))",,,,,,100%,,54 mg and 46 mg,<0.15 mg/mL,over 15 runs,6–8 g/L of resin,Ninety,100%
